Source: patent US20230357838

What was measured:
[1] = tested on: T1, BaDa01 (Bacillus aerophilus)
T1 sequence: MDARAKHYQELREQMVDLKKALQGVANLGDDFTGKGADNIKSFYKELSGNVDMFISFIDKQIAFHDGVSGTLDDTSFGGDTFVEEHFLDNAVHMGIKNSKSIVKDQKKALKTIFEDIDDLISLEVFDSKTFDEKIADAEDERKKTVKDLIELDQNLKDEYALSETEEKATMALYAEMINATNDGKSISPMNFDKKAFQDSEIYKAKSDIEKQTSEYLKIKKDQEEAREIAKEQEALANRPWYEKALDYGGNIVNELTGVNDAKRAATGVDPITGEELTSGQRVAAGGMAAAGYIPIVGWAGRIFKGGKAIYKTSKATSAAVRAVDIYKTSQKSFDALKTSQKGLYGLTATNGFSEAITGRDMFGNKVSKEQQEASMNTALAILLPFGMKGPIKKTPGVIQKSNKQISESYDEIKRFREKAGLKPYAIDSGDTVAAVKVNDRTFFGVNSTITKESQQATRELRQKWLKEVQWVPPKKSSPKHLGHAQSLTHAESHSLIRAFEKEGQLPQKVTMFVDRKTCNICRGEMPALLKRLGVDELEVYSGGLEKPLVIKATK

AcDa01 = conditions: CG 0.790, CH 0.014
[2] = tested on: AshDa01 (Amycolatopsis sp.); conditions: CG 0.699, CH 0.193
[3] = tested on: CseDa01 (Candidatus Scybalomonas e)
[4] = tested on: SaDa02 (Streptomyces sp.)
[5] = tested on: T2, FlDa01 (Flavobacterium sp.)
T2 sequence: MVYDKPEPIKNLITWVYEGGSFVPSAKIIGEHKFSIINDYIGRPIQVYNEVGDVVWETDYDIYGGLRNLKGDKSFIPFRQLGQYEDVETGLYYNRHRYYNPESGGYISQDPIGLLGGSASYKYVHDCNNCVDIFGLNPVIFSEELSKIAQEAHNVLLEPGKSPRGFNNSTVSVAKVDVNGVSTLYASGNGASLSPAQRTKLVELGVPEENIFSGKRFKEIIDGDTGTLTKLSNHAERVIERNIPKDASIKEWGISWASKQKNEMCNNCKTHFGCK

CbDa01 (unidentified) = conditions: CG 0.760, CH 0.022
MGYPDa23 (unidentified) = tested on: T3, MGYPDa23 (unidentified)
T3 sequence: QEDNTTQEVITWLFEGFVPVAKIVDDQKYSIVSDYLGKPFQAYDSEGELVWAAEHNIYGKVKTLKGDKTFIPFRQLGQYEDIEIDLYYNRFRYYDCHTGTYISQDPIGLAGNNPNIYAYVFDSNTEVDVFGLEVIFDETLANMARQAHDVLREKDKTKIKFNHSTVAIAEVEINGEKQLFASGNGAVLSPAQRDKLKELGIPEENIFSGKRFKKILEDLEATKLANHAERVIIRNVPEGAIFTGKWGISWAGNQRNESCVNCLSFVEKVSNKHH

[6] = tested on: T4, CsDa01 (Chitinophaga silvisoli)
T4 sequence: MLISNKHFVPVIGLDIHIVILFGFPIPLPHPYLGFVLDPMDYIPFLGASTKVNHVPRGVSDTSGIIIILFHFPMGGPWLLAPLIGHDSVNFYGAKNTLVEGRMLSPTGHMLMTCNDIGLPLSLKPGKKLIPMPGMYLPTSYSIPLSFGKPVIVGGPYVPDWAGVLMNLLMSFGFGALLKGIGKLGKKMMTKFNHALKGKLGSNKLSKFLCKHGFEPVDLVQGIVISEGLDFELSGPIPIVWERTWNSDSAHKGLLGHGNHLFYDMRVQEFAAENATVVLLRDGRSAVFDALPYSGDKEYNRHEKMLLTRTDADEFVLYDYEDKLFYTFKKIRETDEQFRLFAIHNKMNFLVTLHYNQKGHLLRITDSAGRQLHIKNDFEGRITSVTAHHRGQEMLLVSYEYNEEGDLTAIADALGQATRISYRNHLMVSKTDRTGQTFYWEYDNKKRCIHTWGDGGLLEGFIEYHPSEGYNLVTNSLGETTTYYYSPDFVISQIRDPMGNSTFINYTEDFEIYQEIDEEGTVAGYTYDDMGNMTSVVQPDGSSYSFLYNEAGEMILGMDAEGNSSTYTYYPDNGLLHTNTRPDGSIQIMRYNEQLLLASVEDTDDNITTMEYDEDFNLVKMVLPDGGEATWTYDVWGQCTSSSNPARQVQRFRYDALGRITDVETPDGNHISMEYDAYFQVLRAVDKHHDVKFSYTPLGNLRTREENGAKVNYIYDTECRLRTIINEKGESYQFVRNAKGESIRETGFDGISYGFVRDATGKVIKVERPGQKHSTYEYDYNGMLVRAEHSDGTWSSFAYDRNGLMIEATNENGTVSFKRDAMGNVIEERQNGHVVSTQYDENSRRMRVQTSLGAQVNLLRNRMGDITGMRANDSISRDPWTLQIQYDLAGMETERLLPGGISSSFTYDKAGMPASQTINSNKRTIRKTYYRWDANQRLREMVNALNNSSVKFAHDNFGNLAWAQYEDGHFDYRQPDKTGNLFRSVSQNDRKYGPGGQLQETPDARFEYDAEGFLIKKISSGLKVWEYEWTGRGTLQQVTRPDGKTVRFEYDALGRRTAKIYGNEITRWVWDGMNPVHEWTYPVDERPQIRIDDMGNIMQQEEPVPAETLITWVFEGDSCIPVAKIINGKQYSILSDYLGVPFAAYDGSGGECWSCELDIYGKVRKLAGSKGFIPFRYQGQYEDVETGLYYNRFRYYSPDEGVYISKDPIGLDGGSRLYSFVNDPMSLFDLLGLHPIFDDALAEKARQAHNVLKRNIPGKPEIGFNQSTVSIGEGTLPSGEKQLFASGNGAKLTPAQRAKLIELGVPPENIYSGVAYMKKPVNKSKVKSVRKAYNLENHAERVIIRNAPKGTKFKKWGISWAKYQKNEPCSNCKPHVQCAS

[7] = tested on: T5, d38_MGYPDa829 (unidentified)
T5 sequence: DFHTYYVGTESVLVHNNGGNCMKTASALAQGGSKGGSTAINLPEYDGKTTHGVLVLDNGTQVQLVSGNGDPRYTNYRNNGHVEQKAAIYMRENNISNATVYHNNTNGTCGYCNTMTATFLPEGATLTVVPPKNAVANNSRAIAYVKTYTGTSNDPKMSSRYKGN

Work on “unmodified dsDNA (E. coli C2566 genomic)” yielded an activity (fraction deaminated) [1] of 0.612, an activity (fraction deaminated) (AcDa01) of 0.243 and an activity (fraction deaminated) [2] of 0.342. For the same substance, the activity (fraction deaminated) (d22_Cd4_PeDa01) was 0.641, the activity (fraction deaminated) [3] was 0.998 and the activity (fraction deaminated) [4] was 0.607. The activity (fraction deaminated) [5] was 0.928, the activity (fraction deaminated) (CbDa01 (unidentified)) was 0.24 and the activity (fraction deaminated) (MGYPDa23 (unidentified)) was 0.935. It also gave an activity (fraction deaminated) [6] of 0.913 and an activity (fraction deaminated) [7] of 0.993.
